Test results: patent publication US20130174288A1 (PIERRE FABRE MEDICAMENT, published 2013)
Numbering of substitutions follows the chain as printed. Names may count otherwise.

B1: anti-CXCR4 chimeric Mab c515H7 (antibody, V domains shown)
VH: EVNLVESGGGLVQPGGSLRLSCATSGFTFTDNYMSWVRQPPGKALEWLGFIRNKANGYTTDYSASVRGRFTISRDNSQSILYLQMNALRAEDSATYYCARDVGSNYFDYWGQGTTLTVSS
VL: DIVMSQSPSSLAVSAGEKVTMSCKSSQSLFNSRTRKNYLAWYQQKPGQSPKLLIYWASARDSGVPARFTGSGSETYFTLTISRVQAEDLAVYYCMQSFNLRTFGGGTKLEIK
B2: humanized Mab hz515H7 VH1 D76N VL2 (antibody, V domains shown)
VH: EVQLVESGGGLVQPGRSLRLSCTASGFTFTDNYMSWVRQAPGKGLEWVGFIRNKANGYTTEYAASVKGRFTISRDNSKSIAYLQMNSLKTEDTAVYYCARDVGSNYFDYWGQGTLVTVSS
VL: B1 VL with S5T, A15L, K18R, V19A, G105Q, L109V
B3: humanized Mab hz515H7 VH1 D76N VL2.1 (antibody, V domains shown)
VH: B2 VH
VL: B1 VL with S5T, S9D, A15L, K18R, V19A, S49P, A66D, T69S, G105Q, L109V
B4: humanized Mab hz515H7 VH1 D76N VL2.2 (antibody, V domains shown)
VH: B2 VH
VL: B1 VL with S5T, S9D, A15L, K18R, V19A, S49P, A66D, L89V, G105Q, L109V
B5: humanized Mab hz515H7 VH1 D76N VL2.3 (antibody, V domains shown)
VH: B2 VH
VL: DIVMTQSPDSLAVSLGERATMSCKSSQSLFNSRTRKNYLAWYQQKPGQPPKLLIYWASARDSGVPDRFTGSGSETYFTLTISSLQAEDLAVYYCMQSFNLRTFGQGTKVEIK
B6: anti-CXCR4 Mab 515H7 (murine monoclonal antibody) (antibody, V domains shown)
VH: B1 VH
VL: B1 VL
B7: anti-CXCR4 Mab 301aE5 (murine monoclonal antibody) (antibody, V domains shown)
VH: QVQLKESGPGLVAPSQSLSITCTVSGFSLTDYGVYWVRQPPGKGLEWLGMIWGDGTTDYNSALKSRLSISKDNSKSQVFLKMNTLQTDDTARYYCARGRQFGFDYWGQGTTLTVSS
VL: B1 VL with S22R, Y55F, A59I, D61E, A66D, E74G, Y76D, R83S, M95K, F98Y

molecular target: CXCR4 homodimer BRET pair [CXCR4/Rluc+CXCR4/YFP] on HEK293 cells (Renilla reniformis, UniProt P61073 1-352; P61073 1-352); assay: cell-based or functional assay
Sequence (P61073 whole entry, chain 1 of 2): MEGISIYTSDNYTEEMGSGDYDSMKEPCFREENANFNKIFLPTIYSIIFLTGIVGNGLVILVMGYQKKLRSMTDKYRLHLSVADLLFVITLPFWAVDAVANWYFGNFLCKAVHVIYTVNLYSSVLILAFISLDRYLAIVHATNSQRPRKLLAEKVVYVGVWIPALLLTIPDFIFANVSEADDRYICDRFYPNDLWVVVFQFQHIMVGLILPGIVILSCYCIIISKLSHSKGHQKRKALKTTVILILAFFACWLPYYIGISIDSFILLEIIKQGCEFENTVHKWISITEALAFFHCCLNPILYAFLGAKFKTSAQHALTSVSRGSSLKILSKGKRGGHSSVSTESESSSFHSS
Sequence (P61073 whole entry, chain 2 of 2): as the sequence (P61073 whole entry, chain 1 of 2) above

Row | Binder | % inhibition of SDF-1-induced BRET increase [%]
1 | B1 | 96
2 | B2 | ~88
3 | B3 | ~65
4 | B4 | ~33
5 | B5 | ~21
6 | B6 | 69
7 | B7 | 69

molecular target: T1, human CXCR4 (hCXCR4), expressed on cells (human, UniProt P61073 1-352); assay: cell-based or functional assay
T1 sequence (P61073 whole entry): as the sequence (P61073 whole entry, chain 1 of 2) above

Row | Binder | IC50 (µg/ml), % inhibition of infected cells, GHOST CXCR4 / X4 HIV-1 LAI virus [µg/mL]
8 | B6 | 0.08

molecular target: CCR5 on GHOST cells expressing CD4 and CCR5 (UniProt P51681 1-352, limits assumed); assay: cell-based or functional assay
Sequence (P51681 whole entry): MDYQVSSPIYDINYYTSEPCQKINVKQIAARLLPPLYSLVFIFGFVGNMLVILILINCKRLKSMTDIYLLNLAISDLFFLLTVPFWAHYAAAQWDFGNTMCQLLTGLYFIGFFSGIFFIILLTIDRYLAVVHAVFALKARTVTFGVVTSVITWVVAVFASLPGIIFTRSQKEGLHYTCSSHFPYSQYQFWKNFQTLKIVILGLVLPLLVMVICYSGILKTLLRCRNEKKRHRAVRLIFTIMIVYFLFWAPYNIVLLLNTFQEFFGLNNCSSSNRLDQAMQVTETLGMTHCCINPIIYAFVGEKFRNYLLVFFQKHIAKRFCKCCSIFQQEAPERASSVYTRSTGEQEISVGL

Row | Binder | IC50 (µg/ml), % inhibition of infected cells, GHOST CCR5 / R5 HIV-1 BaL virus [µg/mL]
9 | B6 | > 75

molecular target: T1, human CXCR4 (hCXCR4), expressed on cells; assay: cell-based or functional assay; remark: another data set of the same source

Row | Binder | IC50 (µg/ml), % inhibition of infected cells, HIV-1 89.6 (dual X4/R5) replication in human PBMC [µg/mL] | IC80 (µg/ml), % inhibition of infected cells, HIV-1 89.6 (dual X4/R5) replication in human PBMC [µg/mL]
10 | B1 | < 1.5 | 1.5
11 | B6 | < 1.5 | 1.5
12 | B7 | 20 | 150

molecular target: T1, human CXCR4 (hCXCR4), expressed on cells; assay: cell-based or functional assay; remark: another data set of the same source

Row | Binder | IC50 (µg/ml), % inhibition of infected cells, HIV-1 92UG024 replication in human PBMC [µg/mL] | IC50 (µg/ml), % inhibition of infected cells, HIV-1 KON replication in human PBMC [µg/mL] | IC50 (µg/ml), % inhibition of infected cells, HIV-1 MN replication in human PBMC [µg/mL] | IC80 (µg/ml), % inhibition of infected cells, HIV-1 92UG024 replication in human PBMC [µg/mL] | IC80 (µg/ml), % inhibition of infected cells, HIV-1 KON replication in human PBMC [µg/mL] | IC80 (µg/ml), % inhibition of infected cells, HIV-1 MN replication in human PBMC [µg/mL] | IC90 (µg/ml), % inhibition of infected cells, HIV-1 92UG024 replication in human PBMC [µg/mL] | IC90 (µg/ml), % inhibition of infected cells, HIV-1 KON replication in human PBMC [µg/mL] | IC90 (µg/ml), % inhibition of infected cells, HIV-1 MN replication in human PBMC [µg/mL]
13 | B1 | < 1.5 | 1.5 | < 1.5 | 3 | 10 | 1 | 15 | 20 | 15
14 | B6 | 0.5 | 1 | < 1.5 | 3 | 8 | 1.5 | 10 | 15 | 10
15 | B7 | 50 | 150 | 1 | 150 | > 150 | 150 | > 150 | > 150 | > 150
